T1: BST2 peptide on HLA-A*02:01 (human)
T1 peptide: LLLGIGILVL

T2: IMP2 peptide on HLA-A*02:01 (human)
T2 peptide: NLSALGIFST


Assays:
[1] = molecular target: T1, BST2 peptide on HLA-A*02:01; assay: multimer staining
[2] = molecular target: T2, IMP2 peptide on HLA-A*02:01; assay: multimer staining
[3] = molecular target: T2, IMP2 peptide on HLA-A*02:01; assay: stated without data

Binder	binding result [1]	binding result [2]	binding result [3]
MEL11 (TCR) alpha TRAV12-2*01 TRAJ30 CDR3: CAVNYEDDKIIF beta TRBV9 TRBJ2-7 CDR3: CASSVGVQGSWEQYF	recognises	recognises	
MEL56 (TCR) alpha TRAV12-3 TRAJ35 CDR3: CAMSVGFGNVLHC beta TRBV27 TRBJ2-7 CDR3: CASSLGLAGNEQYF			recognises
MEL25 (TCR) alpha TRAV8-6 TRAJ47 CDR3: CAVSDNGNKLVF beta TRBV12-4 TRBJ2-7 CDR3: CASSWAGPVEQYF	recognises	recognises	
CLL9 (TCR) alpha TRAV12-2*01 TRAJ9 CDR3: CAVGAGGFKTIF beta TRBV2*02 TRBJ2-7 CDR3: CASSESPLSGNEQYF	no recognition	recognises	
MEL58 (TCR) alpha TRAV23DV6 TRAJ54 CDR3: CAARGAQKLVF beta TRBV6-5 TRBJ1-6 CDR3: CASSYVGLGSPLHF			recognises
MEL8 (TCR, V domains shown) Valpha: QKEVEQNSGPLSVPEGAIASLNCTYSDRGSQSFFWYRQYSGKSPELIMSIYSNGDKEDGRFTAQLNKASQYVSLLIRDSQPSDSATYLCAVQKLVFGTGTRLLVSP Vbeta: NAGVTQTPKFQVLKTGQSMTLQCAQDMNHEYMSWYRQDPGMGLRLIHYSVGAGITDQGEVPNGYNVSRSTTEDFPLRLLSAAPSQTSVYFCASSYSFTEATYEQYFGPGTRLTVT	recognises	recognises	

Reference: patent US20260053920A1 (published 2026)
